In PMC3430658, “Investigation of Real-Time Photorepair Activity on DNA via Surface Plasmon Resonance”:

Columns and labels:
[1] = target: T1, CRY-DASH (VcCry1, MBP fusion) (Vibrio cholerae, UniProt Q9KR33 1-461); assay: SPR; photoactivated, DTT; repair during injection; SPR (SensiQ Discovery, neutravidin BioCap chip), 1X PBS (10 mM phosphate, 2.7 mM KCl, 137 mM NaCl) pH 7.4, 0.005% Tween 20, 25 C, 50 uL/min; protein in PBS with 1 mM DTT; details: protein: recombinant; tags: MBP (pMal-c2x, pUNC2002); label: 5'-biotin
T1 sequence: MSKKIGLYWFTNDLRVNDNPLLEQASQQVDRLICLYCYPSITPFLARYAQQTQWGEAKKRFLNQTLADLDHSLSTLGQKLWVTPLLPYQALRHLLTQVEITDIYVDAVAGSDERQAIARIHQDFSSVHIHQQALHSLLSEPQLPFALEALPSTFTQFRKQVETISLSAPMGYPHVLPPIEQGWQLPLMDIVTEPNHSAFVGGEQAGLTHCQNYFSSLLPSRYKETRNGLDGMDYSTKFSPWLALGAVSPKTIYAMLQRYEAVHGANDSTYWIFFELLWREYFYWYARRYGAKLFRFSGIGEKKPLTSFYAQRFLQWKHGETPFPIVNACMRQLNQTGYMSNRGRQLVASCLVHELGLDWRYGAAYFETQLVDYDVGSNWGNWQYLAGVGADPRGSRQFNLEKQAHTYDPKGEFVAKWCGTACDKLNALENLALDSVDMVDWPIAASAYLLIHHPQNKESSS

[2] = target: T2, VcPHR (CPD photolyase, MBP fusion) (Vibrio cholerae, UniProt Q9KNA8 1-469); assay: as above; details: protein: recombinant, tags: MBP (pMal-c2x, pUNC2001)
T2 sequence: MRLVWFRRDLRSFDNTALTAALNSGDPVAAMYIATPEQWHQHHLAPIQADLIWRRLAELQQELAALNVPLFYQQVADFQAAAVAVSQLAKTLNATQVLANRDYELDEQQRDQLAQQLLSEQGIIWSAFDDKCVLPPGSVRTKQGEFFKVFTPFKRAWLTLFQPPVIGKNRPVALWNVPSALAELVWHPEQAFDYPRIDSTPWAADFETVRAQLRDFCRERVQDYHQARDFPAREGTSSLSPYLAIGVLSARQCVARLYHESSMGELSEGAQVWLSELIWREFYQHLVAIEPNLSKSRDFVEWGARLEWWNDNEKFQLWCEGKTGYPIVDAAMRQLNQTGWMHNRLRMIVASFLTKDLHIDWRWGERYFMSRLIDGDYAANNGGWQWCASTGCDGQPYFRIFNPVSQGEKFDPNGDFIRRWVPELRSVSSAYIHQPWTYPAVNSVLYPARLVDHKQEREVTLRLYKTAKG

[3] = target: T2, VcPHR (CPD photolyase, MBP fusion); assay: SPR; photoactivated, DTT; described as nonspecific; SPR (SensiQ Discovery, neutravidin BioCap chip), 1X PBS (10 mM phosphate, 2.7 mM KCl, 137 mM NaCl) pH 7.4, 0.005% Tween 20, 25 C, 50 uL/min; protein in PBS with 1 mM DTT; details: protein: recombinant, tags: MBP (pMal-c2x, pUNC2001)
[4] = target: T1, CRY-DASH (VcCry1, MBP fusion); assay: SPR; photoactivated, DTT; nonspecific, similar to BSA; SPR (SensiQ Discovery, neutravidin BioCap chip), 1X PBS (10 mM phosphate, 2.7 mM KCl, 137 mM NaCl) pH 7.4, 0.005% Tween 20, 25 C, 50 uL/min; protein in PBS with 1 mM DTT; details: protein: recombinant; tags: MBP (pMal-c2x, pUNC2002); label: 5'-biotin
[5] = target: T1, CRY-DASH (VcCry1, MBP fusion); assay: SPR; photoactivated, DTT; described as nonspecific; SPR (SensiQ Discovery, neutravidin BioCap chip), 1X PBS (10 mM phosphate, 2.7 mM KCl, 137 mM NaCl) pH 7.4, 0.005% Tween 20, 25 C, 50 uL/min; protein in PBS with 1 mM DTT; details: protein: recombinant; tags: MBP (pMal-c2x, pUNC2002); label: 5'-biotin on strand 1; blunt
[6] = target: T1, CRY-DASH (VcCry1, MBP fusion); assay: SPR; photoactivated, DTT; no significant binding, similar to BSA; SPR (SensiQ Discovery, neutravidin BioCap chip), 1X PBS (10 mM phosphate, 2.7 mM KCl, 137 mM NaCl) pH 7.4, 0.005% Tween 20, 25 C, 50 uL/min; protein in PBS with 1 mM DTT; details: protein: recombinant; tags: MBP (pMal-c2x, pUNC2002); label: 5'-biotin on strand 1; blunt
[7] = label: 5'-biotin on strand 1, blunt

Question: What does the source list for GACGCAGATCTACGAATTCGCTTAATTCGCTGCACCGGATCCCGCTAG (ssDNA, UV 254 nm irradiated, mostly CPD (mixed lesions, positions not defined)) [UV-damaged ssDNA 48-mer]?
Answer: Kd [1]: 0.0637 µM; Kd ([2]; label: 5'-biotin): 0.0012 µM

Question: Which Kd ([3]; label: 5'-biotin) does the source give for GACGCAGATCTACGAATTCGCTTAATTCGCTGCACCGGATCCCGCTAG (ssDNA) [undamaged ssDNA 48-mer] here?
Answer: 14 µM

Question: What about the Kd [4] of the same binder?
Answer: 117 µM

B1: undamaged dsDNA 48-mer (dsDNA)
DNA 1: GACGCAGATCTACGAATTCGCTTAATTCGCTGCACCGGATCCCGCTAG
DNA 2: CTAGCGGGATCCGGTGCAGCGAATTAAGCGAATTCGTAGATCTGCGTC
Question: How did the Kd [5] turn out when B1 was run?
Answer: 52.1 µM

Question: What about the Kd [3, 7] of the same binder?
Answer: 18.7 µM

B2: UV-damaged dsDNA 48-mer (dsDNA)
DNA 1: B1 DNA 1
DNA 2: B1 DNA 2
modifications: strand 1 UV 254 nm irradiated, mostly CPD (mixed lesions, positions not defined); complement undamaged
Question: Which Kd [2, 7] does the source give for B2 here?
Answer: 0.022 µM

Question: And the Kd [6]?
Answer: 17.8 µM
